Test results as given in patent US20220010021A1 (Sanofi, published 2022).

B1: 16H7 light chain variant I27A (antibody, human IgG4 S228P, lambda, V domains shown)
VH: not shown
VL: SYVLTQPPSVSVAPGQTARITCGGNNAGSESVHWYQQKPGQAPVLVVYDDSDRPSGIPERFSGSNSGNTATLTISRVEAGDEADYYCQVWDGNSDHVVFGGGTKLTVLG
B2: 16H7 light chain variant I27C (antibody, human IgG4 S228P, lambda, V domains shown)
VH: not shown
VL: SYVLTQPPSVSVAPGQTARITCGGNNCGSESVHWYQQKPGQAPVLVVYDDSDRPSGIPERFSGSNSGNTATLTISRVEAGDEADYYCQVWDGNSDHVVFGGGTKLTVLG
B3: 16H7 light chain variant I27F (antibody, V domains shown)
VH: not shown
VL: SYVLTQPPSVSVAPGQTARITCGGNNFGSESVHWYQQKPGQAPVLVVYDDSDRPSGIPERFSGSNSGNTATLTISRVEAGDEADYYCQVWDGNSDHVVFGGGTKLTVLG
notes: copies: 2 + 2
B4: 16H7 light chain variant I27H (antibody, V domains shown)
VH: not shown
VL: SYVLTQPPSVSVAPGQTARITCGGNNHGSESVHWYQQKPGQAPVLVVYDDSDRPSGIPERFSGSNSGNTATLTISRVEAGDEADYYCQVWDGNSDHVVFGGGTKLTVLG
notes: copies: 2 + 2
B5: 16H7 light chain variant I27M (antibody, human IgG4 S228P, lambda, V domains shown)
VH: not shown
VL: SYVLTQPPSVSVAPGQTARITCGGNNMGSESVHWYQQKPGQAPVLVVYDDSDRPSGIPERFSGSNSGNTATLTISRVEAGDEADYYCQVWDGNSDHVVFGGGTKLTVLG
B6: 16H7 light chain variant I27N (antibody, V domains shown)
VH: not shown
VL: SYVLTQPPSVSVAPGQTARITCGGNNNGSESVHWYQQKPGQAPVLVVYDDSDRPSGIPERFSGSNSGNTATLTISRVEAGDEADYYCQVWDGNSDHVVFGGGTKLTVLG
notes: copies: 2 + 2
B7: 16H7 light chain variant I27P (antibody, human IgG4 S228P, lambda, V domains shown)
VH: not shown
VL: SYVLTQPPSVSVAPGQTARITCGGNNPGSESVHWYQQKPGQAPVLVVYDDSDRPSGIPERFSGSNSGNTATLTISRVEAGDEADYYCQVWDGNSDHVVFGGGTKLTVLG
B8: 16H7 light chain variant I27Q (antibody, human IgG4 S228P, lambda, V domains shown)
VH: not shown
VL: SYVLTQPPSVSVAPGQTARITCGGNNQGSESVHWYQQKPGQAPVLVVYDDSDRPSGIPERFSGSNSGNTATLTISRVEAGDEADYYCQVWDGNSDHVVFGGGTKLTVLG
B9: 16H7 light chain variant I27R (antibody, V domains shown)
VH: not shown
VL: SYVLTQPPSVSVAPGQTARITCGGNNRGSESVHWYQQKPGQAPVLVVYDDSDRPSGIPERFSGSNSGNTATLTISRVEAGDEADYYCQVWDGNSDHVVFGGGTKLTVLG
notes: copies: 2 + 2
B10: 16H7 light chain variant I27T (antibody, V domains shown)
VH: not shown
VL: SYVLTQPPSVSVAPGQTARITCGGNNTGSESVHWYQQKPGQAPVLVVYDDSDRPSGIPERFSGSNSGNTATLTISRVEAGDEADYYCQVWDGNSDHVVFGGGTKLTVLG
notes: copies: 2 + 2
B11: 16H7 light chain variant I27V (antibody, V domains shown)
VH: not shown
VL: SYVLTQPPSVSVAPGQTARITCGGNNVGSESVHWYQQKPGQAPVLVVYDDSDRPSGIPERFSGSNSGNTATLTISRVEAGDEADYYCQVWDGNSDHVVFGGGTKLTVLG
notes: copies: 2 + 2
B12: 16H7 light chain variant I27W (antibody, human IgG4 S228P, lambda, V domains shown)
VH: not shown
VL: SYVLTQPPSVSVAPGQTARITCGGNNWGSESVHWYQQKPGQAPVLVVYDDSDRPSGIPERFSGSNSGNTATLTISRVEAGDEADYYCQVWDGNSDHVVFGGGTKLTVLG
B13: 16H7 light chain variant I27Y (antibody, human IgG4 S228P, lambda, V domains shown)
VH: not shown
VL: SYVLTQPPSVSVAPGQTARITCGGNNYGSESVHWYQQKPGQAPVLVVYDDSDRPSGIPERFSGSNSGNTATLTISRVEAGDEADYYCQVWDGNSDHVVFGGGTKLTVLG
B14: 16H7 light chain variant S29A (antibody, V domains shown)
VH: not shown
VL: SYVLTQPPSVSVAPGQTARITCGGNNIGAESVHWYQQKPGQAPVLVVYDDSDRPSGIPERFSGSNSGNTATLTISRVEAGDEADYYCQVWDGNSDHVVFGGGTKLTVLG
notes: copies: 2 + 2
B15: 16H7 light chain variant S29C (antibody, V domains shown)
VH: not shown
VL: SYVLTQPPSVSVAPGQTARITCGGNNIGCESVHWYQQKPGQAPVLVVYDDSDRPSGIPERFSGSNSGNTATLTISRVEAGDEADYYCQVWDGNSDHVVFGGGTKLTVLG
notes: copies: 2 + 2
B16: 16H7 light chain variant S29D (antibody, human IgG4 S228P, lambda, V domains shown)
VH: not shown
VL: SYVLTQPPSVSVAPGQTARITCGGNNIGDESVHWYQQKPGQAPVLVVYDDSDRPSGIPERFSGSNSGNTATLTISRVEAGDEADYYCQVWDGNSDHVVFGGGTKLTVLG
B17: 16H7 light chain variant S29E (antibody, human IgG4 S228P, lambda, V domains shown)
VH: not shown
VL: SYVLTQPPSVSVAPGQTARITCGGNNIGEESVHWYQQKPGQAPVLVVYDDSDRPSGIPERFSGSNSGNTATLTISRVEAGDEADYYCQVWDGNSDHVVFGGGTKLTVLG
B18: 16H7 light chain variant S29F (antibody, V domains shown)
VH: not shown
VL: SYVLTQPPSVSVAPGQTARITCGGNNIGFESVHWYQQKPGQAPVLVVYDDSDRPSGIPERFSGSNSGNTATLTISRVEAGDEADYYCQVWDGNSDHVVFGGGTKLTVLG
notes: copies: 2 + 2
B19: 16H7 light chain variant S29G (antibody, V domains shown)
VH: not shown
VL: SYVLTQPPSVSVAPGQTARITCGGNNIGGESVHWYQQKPGQAPVLVVYDDSDRPSGIPERFSGSNSGNTATLTISRVEAGDEADYYCQVWDGNSDHVVFGGGTKLTVLG
notes: copies: 2 + 2
B20: 16H7 light chain variant S29H (antibody, V domains shown)
VH: not shown
VL: SYVLTQPPSVSVAPGQTARITCGGNNIGHESVHWYQQKPGQAPVLVVYDDSDRPSGIPERFSGSNSGNTATLTISRVEAGDEADYYCQVWDGNSDHVVFGGGTKLTVLG
notes: copies: 2 + 2
B21: 16H7 light chain variant S29I (antibody, human IgG4 S228P, lambda, V domains shown)
VH: not shown
VL: SYVLTQPPSVSVAPGQTARITCGGNNIGIESVHWYQQKPGQAPVLVVYDDSDRPSGIPERFSGSNSGNTATLTISRVEAGDEADYYCQVWDGNSDHVVFGGGTKLTVLG
B22: 16H7 light chain variant S29K (antibody, human IgG4 S228P, lambda, V domains shown)
VH: not shown
VL: SYVLTQPPSVSVAPGQTARITCGGNNIGKESVHWYQQKPGQAPVLVVYDDSDRPSGIPERFSGSNSGNTATLTISRVEAGDEADYYCQVWDGNSDHVVFGGGTKLTVLG
B23: 16H7 light chain variant S29L (antibody, V domains shown)
VH: not shown
VL: SYVLTQPPSVSVAPGQTARITCGGNNIGLESVHWYQQKPGQAPVLVVYDDSDRPSGIPERFSGSNSGNTATLTISRVEAGDEADYYCQVWDGNSDHVVFGGGTKLTVLG
notes: copies: 2 + 2
B24: 16H7 light chain variant S29M (antibody, human IgG4 S228P, lambda, V domains shown)
VH: not shown
VL: SYVLTQPPSVSVAPGQTARITCGGNNIGMESVHWYQQKPGQAPVLVVYDDSDRPSGIPERFSGSNSGNTATLTISRVEAGDEADYYCQVWDGNSDHVVFGGGTKLTVLG

How the values were obtained:
[1] = target: cell surface receptor composed of FGFR1c and co-receptor beta-Klotho (KLB) (human, UniProt P11362 22-822; Q86Z14 1-1044); assay: cell-based or functional assay; for Mean E max, Luciferase reporter gene assay: reference of the scale not given here
Sequence of cell surface receptor composed of FGFR1c and co-receptor beta-Klotho (KLB) (P11362 22-822, chain 1 of 2): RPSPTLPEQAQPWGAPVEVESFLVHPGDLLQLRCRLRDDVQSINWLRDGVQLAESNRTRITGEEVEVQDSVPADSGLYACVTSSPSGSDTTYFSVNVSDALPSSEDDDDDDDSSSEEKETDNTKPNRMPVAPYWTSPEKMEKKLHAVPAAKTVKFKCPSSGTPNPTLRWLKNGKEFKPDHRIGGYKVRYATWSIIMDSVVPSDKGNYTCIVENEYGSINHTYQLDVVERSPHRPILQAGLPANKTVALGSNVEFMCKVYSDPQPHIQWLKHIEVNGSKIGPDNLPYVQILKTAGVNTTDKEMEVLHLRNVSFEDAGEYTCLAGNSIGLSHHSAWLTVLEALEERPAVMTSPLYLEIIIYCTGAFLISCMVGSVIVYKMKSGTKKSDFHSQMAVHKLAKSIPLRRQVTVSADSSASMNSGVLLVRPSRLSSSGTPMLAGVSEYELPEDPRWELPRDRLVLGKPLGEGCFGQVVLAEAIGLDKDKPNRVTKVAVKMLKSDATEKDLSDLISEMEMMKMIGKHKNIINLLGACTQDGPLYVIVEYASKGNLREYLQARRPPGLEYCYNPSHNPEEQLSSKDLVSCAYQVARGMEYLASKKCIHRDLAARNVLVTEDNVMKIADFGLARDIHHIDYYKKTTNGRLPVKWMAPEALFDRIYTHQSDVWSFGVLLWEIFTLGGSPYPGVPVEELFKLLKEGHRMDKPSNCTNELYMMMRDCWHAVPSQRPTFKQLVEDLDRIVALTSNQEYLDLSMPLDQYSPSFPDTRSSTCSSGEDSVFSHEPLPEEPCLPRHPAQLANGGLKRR
Sequence of cell surface receptor composed of FGFR1c and co-receptor beta-Klotho (KLB) (Q86Z14 whole entry, chain 2 of 2): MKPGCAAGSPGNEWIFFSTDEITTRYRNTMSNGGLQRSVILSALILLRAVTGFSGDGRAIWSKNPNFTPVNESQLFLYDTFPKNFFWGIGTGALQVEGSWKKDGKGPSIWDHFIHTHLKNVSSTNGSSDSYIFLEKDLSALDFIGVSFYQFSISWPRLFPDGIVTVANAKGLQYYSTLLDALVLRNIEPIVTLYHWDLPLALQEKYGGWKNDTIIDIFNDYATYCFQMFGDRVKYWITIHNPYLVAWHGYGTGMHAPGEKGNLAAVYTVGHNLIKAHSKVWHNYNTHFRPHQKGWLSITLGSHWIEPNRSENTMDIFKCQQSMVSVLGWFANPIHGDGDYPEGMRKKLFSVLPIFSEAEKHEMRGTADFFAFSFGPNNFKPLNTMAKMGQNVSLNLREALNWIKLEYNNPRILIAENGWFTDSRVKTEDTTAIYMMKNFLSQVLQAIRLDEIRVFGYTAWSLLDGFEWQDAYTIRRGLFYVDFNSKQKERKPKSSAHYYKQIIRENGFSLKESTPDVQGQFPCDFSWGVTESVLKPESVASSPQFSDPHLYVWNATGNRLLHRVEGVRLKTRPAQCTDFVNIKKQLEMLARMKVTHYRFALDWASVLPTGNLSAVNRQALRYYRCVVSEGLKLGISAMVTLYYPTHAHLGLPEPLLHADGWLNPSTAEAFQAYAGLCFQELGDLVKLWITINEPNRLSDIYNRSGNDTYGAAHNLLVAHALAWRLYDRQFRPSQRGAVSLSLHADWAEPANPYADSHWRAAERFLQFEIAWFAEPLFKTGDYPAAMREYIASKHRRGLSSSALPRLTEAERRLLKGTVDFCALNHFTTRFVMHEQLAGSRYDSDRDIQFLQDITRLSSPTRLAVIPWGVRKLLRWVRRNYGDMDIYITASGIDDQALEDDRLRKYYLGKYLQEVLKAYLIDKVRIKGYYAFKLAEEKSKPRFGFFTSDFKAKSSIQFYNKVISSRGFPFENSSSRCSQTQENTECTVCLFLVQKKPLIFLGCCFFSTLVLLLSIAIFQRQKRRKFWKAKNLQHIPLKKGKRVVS

human beta-Klotho (KLB) = target: T1, human beta-Klotho (KLB) (human, UniProt Q86Z14 53-997); assay: BLI off-rate screen, supernatant;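 note: expression supernatants tested at 25 µg/mL, dissociation followed for 1800 s in D-PBS with 0.1% BSA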
T1 construct: Bought soluble protein; also called human KLB; ß-Klotho
T1 sequence (looked up): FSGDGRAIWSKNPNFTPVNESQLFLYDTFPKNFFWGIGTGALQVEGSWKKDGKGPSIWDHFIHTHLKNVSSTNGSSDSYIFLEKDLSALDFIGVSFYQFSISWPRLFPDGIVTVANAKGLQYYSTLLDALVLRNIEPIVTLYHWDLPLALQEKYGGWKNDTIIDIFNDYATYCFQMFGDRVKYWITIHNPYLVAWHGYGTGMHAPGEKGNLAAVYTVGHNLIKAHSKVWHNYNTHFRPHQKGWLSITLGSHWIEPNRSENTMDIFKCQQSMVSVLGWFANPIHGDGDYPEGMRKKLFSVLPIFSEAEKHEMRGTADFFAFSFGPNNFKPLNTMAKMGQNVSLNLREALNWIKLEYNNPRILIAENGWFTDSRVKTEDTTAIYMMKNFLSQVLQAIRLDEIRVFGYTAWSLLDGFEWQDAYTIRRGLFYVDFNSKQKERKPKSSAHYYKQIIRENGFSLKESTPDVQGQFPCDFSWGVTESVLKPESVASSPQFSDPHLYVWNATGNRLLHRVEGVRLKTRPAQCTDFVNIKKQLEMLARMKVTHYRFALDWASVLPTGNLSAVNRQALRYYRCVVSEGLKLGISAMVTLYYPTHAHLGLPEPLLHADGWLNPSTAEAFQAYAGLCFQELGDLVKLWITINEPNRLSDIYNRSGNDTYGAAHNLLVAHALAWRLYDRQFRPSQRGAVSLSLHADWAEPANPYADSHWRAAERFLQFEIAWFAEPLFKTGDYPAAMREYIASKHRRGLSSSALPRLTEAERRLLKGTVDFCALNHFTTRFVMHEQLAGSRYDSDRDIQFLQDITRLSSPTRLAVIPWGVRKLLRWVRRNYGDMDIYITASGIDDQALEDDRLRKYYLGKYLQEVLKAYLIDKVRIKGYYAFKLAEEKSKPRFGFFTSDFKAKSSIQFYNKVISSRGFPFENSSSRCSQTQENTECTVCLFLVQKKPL

Binder	Mean E max, Luciferase reporter gene assay [1]	Mean EC50, Luciferase reporter gene assay [1]	koff (human beta-Klotho (KLB))
B1	107%	111 pM	5.3e-05 s⁻¹
B2	106%	160 pM	3.8e-05 s⁻¹
B3	104%	118 pM	2e-05 s⁻¹
B4	100%	98 pM	3.3e-05 s⁻¹
B5	97%	87 pM	6e-05 s⁻¹
B6	96%	162 pM	4.5e-05 s⁻¹
B7	107%	145 pM	3.5e-06 s⁻¹
B8	103%	144 pM	6.1e-05 s⁻¹
B9	105%	131 pM	2.2e-05 s⁻¹
B10	97%	152 pM	3.3e-05 s⁻¹
B11	104%	136 pM	3.3e-05 s⁻¹
B12	104%	156 pM	6.5e-05 s⁻¹
B13	96%	116 pM	4.2e-05 s⁻¹
B14	100%	153 pM	1e-05 s⁻¹
B15	108%	172 pM	5e-05 s⁻¹
B16	109%	136 pM	4.5e-05 s⁻¹
B17	114%	102 pM	2.3e-05 s⁻¹
B18	116%	190 pM	1.9e-05 s⁻¹
B19	98%	90 pM	3.5e-05 s⁻¹
B20	100%	119 pM	4.9e-05 s⁻¹
B21	107%	140 pM	3e-05 s⁻¹
B22	96%	146 pM	1.5e-05 s⁻¹
B23	100%	108 pM	1.1e-05 s⁻¹
B24	106%	133 pM	2.3e-05 s⁻¹
